From US10765739B2, “Use of MIF and MIF pathway agonists” (Yale University, priority 2006, dated 2020) come the findings set out here.

The subject of test [1] is AMPK. Briefly: Hypoxic AMPK phosphorylation in human dermal fibroblasts by MIF promoter genotype. It is filed as cell-based. The note with it: 10 ng/ml during 9 hours of hypoxia. On the procedure:
(§1) Immunoblots were performed according to standard methods known in the art. See, for example, Li et al., Am. J. Physiol Endocrinol Metab 287, E384 (2004) and Baron et al., Circ Res (Jan. 13, 2005). Heart homogenate proteins were combined with Laemmli sample buffer prior to resolution by SDS-PAGE, transferred onto polyvinylidene difluoride membranes, immunoblotted, detected with enhanced chemiluminesence, and quantified by densitometry.
To isolate human fibroblasts, human foreskin samples were obtained from the Yale Human Cell Resource Center (Department of Dermatology) in accordance with the Yale Human Investigations Committee. Fibroblasts were cultured in DMEM supplemented with 10% fetal bovine serum (FBS), penicillin (100 IU/ml) and streptomycin (100 μg/ml) at 37° C. Cells were studied at 80% confluence, and on the day prior to experiments, culture media was changed to DMEM with 1% FBS. Early passage fibroblasts were either subjected to 9 hours of hypoxia by incubation in an air-tight chamber gassed with 95% nitrogen/5% CO2 or control incubation in room air.
To confirm that relative MIF deficiency was responsible for impaired hypoxic AMPK activation in the low-expressing 5/5 genotype fibroblasts, we investigated the effect of adding human rMIF (10 ng/ml) to the culture media during hypoxic incubation.

The subject of test [2] is AMPK. Briefly: AMPK Thr172 phosphorylation (immunoblot densitometry) in isolated heart papillary muscles. The note with it: normoxic heart muscles. It is filed as cell-based, rat. The procedure: (§2) Briefly, rat heart anterior and posterior left ventricular papillary muscles (3-5 mg) were equilibrated in oxygenated Dulbecco's phosphate-buffered saline (PBS) containing 1 mM MgCl2 […], glucose, and 1% BSA. Unless otherwise noted, 100% oxygen flowed continuously through sealed muscle incubation containers while muscles were kept in an oscillating water bath at 37° C., and experiments began after a 15 minute equilibration period in these conditions. During incubations designed to examine the effects of hypoxia, muscles were transferred to incubation containers gassed with N2 for 30 minutes. In incubations with rMIF (0-800 ng/ml), anti-MIF blocking antibody (100 μg/ml), and/or non-immune rabbit IgG (100 μg/ml); Sigma, USA), these compounds were added for 30-120 minutes. At the end of experiments, muscles were freeze clamped and stored in liquid nitrogen until further analysis, unless otherwise specified.
as §1
(Immunoblotting shows a protein as a band on a membrane.)

For test [3], the system named is rat heart left ventricular papillary muscles. The test is described as follows: 2-deoxy-[1-3H]glucose uptake in isolated heart papillary muscles. Type of test: cell-based. The note with it: normoxic heart muscles, 0-800 ng/ml for 60 minutes. On the procedure:
as §2
To further support MIF's role in modulating the AMPK pathway, we added recombinant human MIF (rMIF) to intact normoxic heart muscles. Papillary muscles were isolated as above. […]

The test system of test [4] is GLUT4. Briefly: Cell-surface GLUT4 content of papillary muscles by bio-LC-ATB-BGPA photolabel. Type of test: cell-based, rat. Conditions: 400 ng/ml for 60 minutes. On the procedure:
as §2, with “At the end of experiments, muscles were freeze clamped and stored in liquid nitrogen until further analysis, unless otherwise specified.” left out
Glucose uptake is primarily mediated by the glucose transporter, GLUT4, and AMPK-stimulation of glucose transport is due to the translocation of GLUT4 vesicles to the cell surface, where GLUT4 is physiologically active (Sun et al., Circulation 89, 793 (1994); Young et al., Circulation 95, 415 (1997)). Thus, we assessed the cell-surface GLUT4 content of heart muscles after incubation with rMIF, utilizing a cell-membrane impermeant biotinylated glucose transporter photolabel (bio-LC-ATB-BGPA). […]

B1: rMIF: recombinant human MIF (macrophage migration inhibitory factor), the preferred MIF agonist (protein, UniProt P14174 2-115, looked up)
Macrophage migration …: PMFIVNTNVPRASVPDGFLSELTQQLAQATGKPPQYIAVHVVPDQLMAFGGSSEPCALCSLHSIGKIGGAQNRSYSKLLCGLLAERLRISPDRVYINYYDMNAANVGWNNSTFA
For the molecule B1, the “hypoxic AMPK signaling (AMPK phosphorylation)” value in test [1] (5/5 genotype fibroblasts) is recorded as “rescued”. Further, the AMPK phosphorylation entry in test [1] (hypoxic non-5/5 genotype fibroblasts) is given as “no additional effect”. The “AMPK Thr172 phosphorylation” value in test [2] (0-400 ng/ml, 0-120 minutes) is “time- and dose-dependent increase”. In addition, the “maximal AMPK activation (AMPK Thr172 phosphorylation)” value in test [2] (400 ng/ml incubated for 60 minutes) was 1.5-2.0 fold increase. In test [3], the glucose uptake result is recorded as “increase”. For the same molecule, in test [4], the “cell-surface GLUT4” value was “increased”.
